From patent publication US10406218B2 (priority 2014, dated 2019)

B1: Rv1886c: MTB antigen currently included in TB vaccines in clinical development (protein, UniProt P9WQP1 41-325, looked up)
Diacylglycerol …: FSRPGLPVEYLQVPSPSMGRDIKVQFQSGGNNSPAVYLLDGLRAQDDYNGWDINTPAFEWYYQSGLSIVMPVGGQSSFYSDWYSPACGKAGCQTYKWETFLTSELPQWLSANRAVKPTGSAAIGLSMAGSSAMILAAYHPQQFIYAGSLSALLDPSQGMGPSLIGLAMGDAGGYKAADMWGPSSDPAWERNDPTQQIPKLVANNTRLWVYCGNGTPNELGGANIPAEFLENFVRSSNLKFQDAYNAAGGHNAVFNFPPNGTHSWEYWGAQLNAMKGDLQSSLGAG
B2: Rv1196: MTB antigen currently included in TB vaccines in clinical development (protein, UniProt L7N675 1-391, looked up)
PPE family protein PPE18: MVDFGALPPEINSARMYAGPGSASLVAAAQMWDSVASDLFSAASAFQSVVWGLTVGSWIGSSAGLMVAAASPYVAWMSVTAGQAELTAAQVRVAAAAYETAYGLTVPPPVIAENRAELMILIATNLLGQNTPAIAVNEAEYGEMWAQDAAAMFGYAAATATATATLLPFEEAPEMTSAGGLLEQAAAVEEASDTAAANQLMNNVPQALQQLAQPTQGTTPSSKLGGLWKTVSPHRSPISNMVSMANNHMSMTNSGVSMTNTLSSMLKGFAPAAAAQAVQTAAQNGVRAMSSLGSSLGSSGLGGGVAANLGRAASVGSLSVPQAWAAANQAVTPAARALPLTSLTSAAERGPGQMLGGLPVGQMGARAGGGLSGVLRVPPRPYVMPHSPAAG
B3: Rv0288: MTB antigen currently included in TB vaccines in clinical development (protein, UniProt P9WNK3 1-96, looked up)
ESAT-6-like protein EsxH: MSQIMYNYPAMLGHAGDMAGYAGTLQSLGAEIAVEQAALQSAWQGDTGITYQAWQAQWNQAMEDLVRAYHAMSSTHEANTMAMMARDTAEAAKWGG

What follows are molecules tested on T cells of LTBI and HC donors (assay: antigen reactivity in LTBI vs HC donors (LTBI-specific or crossreactive)). Conditions: response frequency and magnitude in LTBI vs HC donors, FIG. 10.
Assay type: cell-based, human
From the text: The data herein implies that preexisting immunity and occasional boosting might be provided by exposure to NTMs, in a low MTB-complex exposure population such as the one from the general San Diego area. This might be viewed as desirable, or alternatively contributing an undesired confounding factor in evaluation of vaccination strategies. Regardless, whether or not preexisting, non-TB-complex related reactivity is present in the general population is an important issue has implication for the development of vaccination strategies. To further investigate this issue, epitope reactivity data (Lindestamm-Arlehamn et al, 2012) was mapped back to the specific antigens from which the epitopes were derived. Antigens recognized by 2 or more donors were further categorized as LTBI-specific or crossreactive according to the following criteria; antigens were categorized as LTBI-specific if there was a lack of reactivity in HC individuals, or if the ratio between response frequency and total SFC for LTBI/HC were >4. All other antigens were categorized as crossreactive.
In the case of B1, the “antigen reactivity category (LTBI-specific or crossreactive)” value (“antigen reactivity category” below) is reported as “widely cross-reactive”.
B2 was tested, and the “antigen reactivity category” value was “exclusively specific”.
For B3, the “antigen reactivity category” value was “widely cross-reactive”.
